Target: MBD2 MBD S189A (Homo sapiens, UniProt Q9UBB5 150-214, S189A)
Assay: fluorescence polarization; 3 mM Mg2+; 10 nM DNA; FP: 10 mM HEPES pH 7.5, 50 mM NaCl, 3 mM MgCl2, 0.1 mM EDTA, 1 mM DTT, 0.02% sodium azide; 10 nM 3'FAM DNA; temperature not stated
Settings: protein: recombinant; tags: thioredoxin/His tag (modified pET32a) removed by TEV protease; label: 3'FAM on forward strand; blunt

Chain of MBD2 MBD S189A (Q9UBB5 150-214 S189A): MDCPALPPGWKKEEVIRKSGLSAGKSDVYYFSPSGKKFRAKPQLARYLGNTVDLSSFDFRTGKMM

B1: 17-bp symmetrically methylated mCpG DNA, 3'FAM (dsDNA)
DNA 1: GAGGCGCTCGGCGGCAG
DNA 2: CTGCCGCCGAGCGCCTC
modifications: 5-methylcytosine at position 9 of strand 1 and at position 8 of strand 2 (symmetric mCpG)
Q: For B1, which Kd is on record?
A: Its Kd is 11.5 ± 0.6 µM.
